# Numbered stars: 1 amine (or outer) side, 2 acyl side, 3 side chain; on linkers, the order of the positions; unused ones are H or OH. Bridge positions count the residues as written; N and C are the ends. Side chains are listed from the residue outwards. Ends that are not written are not given here. * marks the point of attachment. C20 diacid = O=C(O)CCCCCCCCCCCCCCCCCCC(=O)*; γGlu = O=C(O)[C@H](CCC(=O)[*:2])N[*:1]; AEEA = NCCOCCOCC(=O)O
# T1: human amylin receptor (amylin 3(a) receptor: human calcitonin receptor co-expressed with RAMP-3) (human, UniProt P30988 25-474; O60896 24-148, limits assumed)
# T1 sequence (looked up) 1: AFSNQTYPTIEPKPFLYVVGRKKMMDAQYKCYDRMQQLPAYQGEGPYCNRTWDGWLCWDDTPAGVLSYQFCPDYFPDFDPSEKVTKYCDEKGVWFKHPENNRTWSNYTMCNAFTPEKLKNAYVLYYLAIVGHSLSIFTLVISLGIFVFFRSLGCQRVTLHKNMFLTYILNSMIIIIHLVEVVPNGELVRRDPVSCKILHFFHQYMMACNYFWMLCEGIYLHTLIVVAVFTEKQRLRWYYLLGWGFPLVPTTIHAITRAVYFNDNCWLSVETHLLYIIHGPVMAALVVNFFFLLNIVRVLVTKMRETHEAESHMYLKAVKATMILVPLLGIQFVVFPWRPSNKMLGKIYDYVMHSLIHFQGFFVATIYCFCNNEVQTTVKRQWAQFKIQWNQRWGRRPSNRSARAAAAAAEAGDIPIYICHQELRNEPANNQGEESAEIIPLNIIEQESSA
# T1 sequence (looked up) 2: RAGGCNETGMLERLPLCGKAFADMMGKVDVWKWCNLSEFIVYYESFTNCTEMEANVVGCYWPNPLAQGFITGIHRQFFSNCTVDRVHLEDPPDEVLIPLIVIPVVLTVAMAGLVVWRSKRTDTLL
# T2: human calcitonin receptor (human, UniProt P30988 25-474)
# T2 sequence (looked up): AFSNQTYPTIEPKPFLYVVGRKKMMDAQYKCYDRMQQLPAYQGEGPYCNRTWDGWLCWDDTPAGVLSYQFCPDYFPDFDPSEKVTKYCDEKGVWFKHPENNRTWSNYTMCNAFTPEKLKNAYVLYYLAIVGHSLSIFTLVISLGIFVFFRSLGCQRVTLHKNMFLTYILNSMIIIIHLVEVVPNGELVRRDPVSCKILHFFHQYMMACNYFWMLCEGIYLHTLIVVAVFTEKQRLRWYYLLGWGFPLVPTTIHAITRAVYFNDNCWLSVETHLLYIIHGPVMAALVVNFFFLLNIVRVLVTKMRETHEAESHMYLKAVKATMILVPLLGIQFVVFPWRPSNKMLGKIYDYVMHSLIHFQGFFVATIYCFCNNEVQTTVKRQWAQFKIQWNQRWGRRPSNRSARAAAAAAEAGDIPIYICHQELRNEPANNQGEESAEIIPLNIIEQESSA
# Legend:
# [1] = molecular target: T1, human amylin receptor (amylin 3(a) …); test: cell-based or functional assay
# [2] = molecular target: T2, human calcitonin receptor; test: cell-based or functional assay
Binder,hAmylin-R funct. EC50 [1],Ratio hCT/hAmylin funct. (hCTR EC50 against hAmylin-R EC50) [2],hCTR funct. EC50 [2]
"K([AEEA-γGlu-C20 diacid])CNTATCATQRLAKFLRHSSPNFGAIPSSTPVGSNTY-NH2 (disulfide 2-7; N-terminus assumed; SMILES CC[C@H](C)[C@H](NC(=O)[C@H](C)NC(=O)CNC(=O)[C@H](Cc1ccccc1)NC(=O)[C@H](CC(N)=O)NC(=O)[C@@H]1CCCN1C(=O)[C@H](CO)NC(=O)[C@H](CO)NC(=O)[C@H](Cc1c[nH]cn1)NC(=O)[C@H](CCCNC(=N)N)NC(=O)[C@H](CC(C)C)NC(=O)[C@H](Cc1ccccc1)NC(=O)[C@H](CCCCN)NC(=O)[C@H](C)NC(=O)[C@H](CC(C)C)NC(=O)[C@H](CCCNC(=N)N)NC(=O)[C@H](CCC(N)=O)NC(=O)[C@@H](NC(=O)[C@H](C)NC(=O)[C@@H]1CSSC[C@H](NC(=O)[C@@H](N)CCCCNC(=O)COCCOCCNC(=O)CC[C@H](NC(=O)CCCCCCCCCCCCCCCCCCC(=O)O)C(=O)O)C(=O)N[C@@H](CC(N)=O)C(=O)N[C@@H]([C@@H](C)O)C(=O)N[C@@H](C)C(=O)N[C@@H]([C@@H](C)O)C(=O)N1)[C@@H](C)O)C(=O)N1CCC[C@H]1C(=O)N[C@@H](CO)C(=O)N[C@@H](CO)C(=O)N[C@H](C(=O)N1CCC[C@H]1C(=O)N[C@H](C(=O)NCC(=O)N[C@@H](CO)C(=O)N[C@@H](CC(N)=O)C(=O)N[C@H](C(=O)N[C@@H](Cc1ccc(O)cc1)C(N)=O)[C@@H](C)O)C(C)C)[C@@H](C)O, also called compound 74)",0.666 nM,56.3,37.5 nM
"K([AEEA-γGlu-C20 diacid])CNTATCATQRLATFLRHSSPNFGAIPSSTPVGSNTY-NH2 (disulfide 2-7; N-terminus assumed; SMILES CC[C@H](C)[C@H](NC(=O)[C@H](C)NC(=O)CNC(=O)[C@H](Cc1ccccc1)NC(=O)[C@H](CC(N)=O)NC(=O)[C@@H]1CCCN1C(=O)[C@H](CO)NC(=O)[C@H](CO)NC(=O)[C@H](Cc1c[nH]cn1)NC(=O)[C@H](CCCNC(=N)N)NC(=O)[C@H](CC(C)C)NC(=O)[C@H](Cc1ccccc1)NC(=O)[C@@H](NC(=O)[C@H](C)NC(=O)[C@H](CC(C)C)NC(=O)[C@H](CCCNC(=N)N)NC(=O)[C@H](CCC(N)=O)NC(=O)[C@@H](NC(=O)[C@H](C)NC(=O)[C@@H]1CSSC[C@H](NC(=O)[C@@H](N)CCCCNC(=O)COCCOCCNC(=O)CC[C@H](NC(=O)CCCCCCCCCCCCCCCCCCC(=O)O)C(=O)O)C(=O)N[C@@H](CC(N)=O)C(=O)N[C@@H]([C@@H](C)O)C(=O)N[C@@H](C)C(=O)N[C@@H]([C@@H](C)O)C(=O)N1)[C@@H](C)O)[C@@H](C)O)C(=O)N1CCC[C@H]1C(=O)N[C@@H](CO)C(=O)N[C@@H](CO)C(=O)N[C@H](C(=O)N1CCC[C@H]1C(=O)N[C@H](C(=O)NCC(=O)N[C@@H](CO)C(=O)N[C@@H](CC(N)=O)C(=O)N[C@H](C(=O)N[C@@H](Cc1ccc(O)cc1)C(N)=O)[C@@H](C)O)C(C)C)[C@@H](C)O, also called compound 75)",0.296 nM,30.6,9.07 nM
"K([AEEA-γGlu-C20 diacid])CNTATCATQRLASFLRHSSPNFGAIPSSTPVGSNTY-NH2 (disulfide 2-7; N-terminus assumed; SMILES CC[C@H](C)[C@H](NC(=O)[C@H](C)NC(=O)CNC(=O)[C@H](Cc1ccccc1)NC(=O)[C@H](CC(N)=O)NC(=O)[C@@H]1CCCN1C(=O)[C@H](CO)NC(=O)[C@H](CO)NC(=O)[C@H](Cc1c[nH]cn1)NC(=O)[C@H](CCCNC(=N)N)NC(=O)[C@H](CC(C)C)NC(=O)[C@H](Cc1ccccc1)NC(=O)[C@H](CO)NC(=O)[C@H](C)NC(=O)[C@H](CC(C)C)NC(=O)[C@H](CCCNC(=N)N)NC(=O)[C@H](CCC(N)=O)NC(=O)[C@@H](NC(=O)[C@H](C)NC(=O)[C@@H]1CSSC[C@H](NC(=O)[C@@H](N)CCCCNC(=O)COCCOCCNC(=O)CC[C@H](NC(=O)CCCCCCCCCCCCCCCCCCC(=O)O)C(=O)O)C(=O)N[C@@H](CC(N)=O)C(=O)N[C@@H]([C@@H](C)O)C(=O)N[C@@H](C)C(=O)N[C@@H]([C@@H](C)O)C(=O)N1)[C@@H](C)O)C(=O)N1CCC[C@H]1C(=O)N[C@@H](CO)C(=O)N[C@@H](CO)C(=O)N[C@H](C(=O)N1CCC[C@H]1C(=O)N[C@H](C(=O)NCC(=O)N[C@@H](CO)C(=O)N[C@@H](CC(N)=O)C(=O)N[C@H](C(=O)N[C@@H](Cc1ccc(O)cc1)C(N)=O)[C@@H](C)O)C(C)C)[C@@H](C)O, also called compound 73)",0.085 nM,11.3,0.961 nM

# Further lines, results first:
hAmylin-R funct. EC50 [1],Ratio hCT/hAmylin funct. (hCTR EC50 against hAmylin-R EC50) [2],hCTR funct. EC50 [2],Binder
0.037 nM,139,5.13 nM,"K([γGlu-C20 diacid])CNTATCATQRLARFLRHSSPNFGAIPSSTPVGSNTY-NH2 (disulfide 2-7; N-terminus assumed; SMILES CC[C@H](C)[C@H](NC(=O)[C@H](C)NC(=O)CNC(=O)[C@H](Cc1ccccc1)NC(=O)[C@H](CC(N)=O)NC(=O)[C@@H]1CCCN1C(=O)[C@H](CO)NC(=O)[C@H](CO)NC(=O)[C@H](Cc1c[nH]cn1)NC(=O)[C@H](CCCNC(=N)N)NC(=O)[C@H](CC(C)C)NC(=O)[C@H](Cc1ccccc1)NC(=O)[C@H](CCCNC(=N)N)NC(=O)[C@H](C)NC(=O)[C@H](CC(C)C)NC(=O)[C@H](CCCNC(=N)N)NC(=O)[C@H](CCC(N)=O)NC(=O)[C@@H](NC(=O)[C@H](C)NC(=O)[C@@H]1CSSC[C@H](NC(=O)[C@@H](N)CCCCNC(=O)CC[C@H](NC(=O)CCCCCCCCCCCCCCCCCCC(=O)O)C(=O)O)C(=O)N[C@@H](CC(N)=O)C(=O)N[C@@H]([C@@H](C)O)C(=O)N[C@@H](C)C(=O)N[C@@H]([C@@H](C)O)C(=O)N1)[C@@H](C)O)C(=O)N1CCC[C@H]1C(=O)N[C@@H](CO)C(=O)N[C@@H](CO)C(=O)N[C@H](C(=O)N1CCC[C@H]1C(=O)N[C@H](C(=O)NCC(=O)N[C@@H](CO)C(=O)N[C@@H](CC(N)=O)C(=O)N[C@H](C(=O)N[C@@H](Cc1ccc(O)cc1)C(N)=O)[C@@H](C)O)C(C)C)[C@@H](C)O, also called compound 63)"
0.242 nM,38.6,9.33 nM,"K([γGlu-C20 diacid])CNTATCATQRLARFLRHSSPNFGAIPSSTNVGPNTY-NH2 (disulfide 2-7; N-terminus assumed; SMILES CC[C@H](C)[C@H](NC(=O)[C@H](C)NC(=O)CNC(=O)[C@H](Cc1ccccc1)NC(=O)[C@H](CC(N)=O)NC(=O)[C@@H]1CCCN1C(=O)[C@H](CO)NC(=O)[C@H](CO)NC(=O)[C@H](Cc1c[nH]cn1)NC(=O)[C@H](CCCNC(=N)N)NC(=O)[C@H](CC(C)C)NC(=O)[C@H](Cc1ccccc1)NC(=O)[C@H](CCCNC(=N)N)NC(=O)[C@H](C)NC(=O)[C@H](CC(C)C)NC(=O)[C@H](CCCNC(=N)N)NC(=O)[C@H](CCC(N)=O)NC(=O)[C@@H](NC(=O)[C@H](C)NC(=O)[C@@H]1CSSC[C@H](NC(=O)[C@@H](N)CCCCNC(=O)CC[C@H](NC(=O)CCCCCCCCCCCCCCCCCCC(=O)O)C(=O)O)C(=O)N[C@@H](CC(N)=O)C(=O)N[C@@H]([C@@H](C)O)C(=O)N[C@@H](C)C(=O)N[C@@H]([C@@H](C)O)C(=O)N1)[C@@H](C)O)C(=O)N1CCC[C@H]1C(=O)N[C@@H](CO)C(=O)N[C@@H](CO)C(=O)N[C@H](C(=O)N[C@@H](CC(N)=O)C(=O)N[C@H](C(=O)NCC(=O)N1CCC[C@H]1C(=O)N[C@@H](CC(N)=O)C(=O)N[C@H](C(=O)N[C@@H](Cc1ccc(O)cc1)C(N)=O)[C@@H](C)O)C(C)C)[C@@H](C)O, also called compound 65)"

# Reference: patent publication US20140087995A1 (published 2014)
